{"source": "patent US20030224390A1", "about": "“Method of identifying conformation-sensitive binding peptides and uses thereof” (Karo Bio AB, priority 2000, published 2003)", "key": {"[1]": {"target": "T1, Glucocorticoid Receptor (GR) (Homo sapiens, UniProt P04150)", "T1 construct": "peptides to GR in the yeast based system using full-length receptor; expressed in transfected cells; host or cells: yeast", "T1 sequence (P04150 1-777)": "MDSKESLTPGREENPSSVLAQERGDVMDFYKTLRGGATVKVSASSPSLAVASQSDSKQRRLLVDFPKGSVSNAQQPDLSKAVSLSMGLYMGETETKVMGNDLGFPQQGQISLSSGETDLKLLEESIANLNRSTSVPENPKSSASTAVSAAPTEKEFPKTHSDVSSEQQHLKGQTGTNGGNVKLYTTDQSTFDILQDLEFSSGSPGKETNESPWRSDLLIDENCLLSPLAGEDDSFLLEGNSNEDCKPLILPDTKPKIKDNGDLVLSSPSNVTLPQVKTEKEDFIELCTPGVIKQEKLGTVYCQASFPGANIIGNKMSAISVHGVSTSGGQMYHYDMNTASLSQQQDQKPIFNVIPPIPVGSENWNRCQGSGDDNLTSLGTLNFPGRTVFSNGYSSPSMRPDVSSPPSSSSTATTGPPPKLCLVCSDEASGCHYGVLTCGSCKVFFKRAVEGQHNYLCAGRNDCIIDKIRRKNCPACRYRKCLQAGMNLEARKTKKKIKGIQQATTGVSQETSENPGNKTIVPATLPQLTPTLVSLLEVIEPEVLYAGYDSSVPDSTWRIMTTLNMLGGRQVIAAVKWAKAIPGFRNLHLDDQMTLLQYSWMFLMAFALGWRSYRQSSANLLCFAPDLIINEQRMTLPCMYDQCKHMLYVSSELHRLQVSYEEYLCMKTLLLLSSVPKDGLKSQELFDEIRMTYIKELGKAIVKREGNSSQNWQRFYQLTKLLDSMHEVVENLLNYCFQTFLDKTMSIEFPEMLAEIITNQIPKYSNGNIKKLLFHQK", "test": "Yeast based two-hybrid system with full-length GR (Example 503)", "assay_type": "cell-based", "text": "(§1) We have performed a limited amount of in vivo screenings for peptides to GR in the yeast based system using full-length receptor and either dexamethasone or medroxyprogesterone acetate as ligands. We have a single peptide sequence that we have followed up on based on its specificity profile in yeast. This peptide was isolated on MPA liganded GR, and is termed GRMPA. Its sequence is as follows: […] (SEQ ID NO:268)."}, "glucocorticoid receptor": {"target": "T2, glucocorticoid receptor (Homo sapiens, UniProt P04150)", "T2 construct": "expressed in transfected cells; host or cells: Huh-7 cells", "T2 sequence (P04150 1-777)": "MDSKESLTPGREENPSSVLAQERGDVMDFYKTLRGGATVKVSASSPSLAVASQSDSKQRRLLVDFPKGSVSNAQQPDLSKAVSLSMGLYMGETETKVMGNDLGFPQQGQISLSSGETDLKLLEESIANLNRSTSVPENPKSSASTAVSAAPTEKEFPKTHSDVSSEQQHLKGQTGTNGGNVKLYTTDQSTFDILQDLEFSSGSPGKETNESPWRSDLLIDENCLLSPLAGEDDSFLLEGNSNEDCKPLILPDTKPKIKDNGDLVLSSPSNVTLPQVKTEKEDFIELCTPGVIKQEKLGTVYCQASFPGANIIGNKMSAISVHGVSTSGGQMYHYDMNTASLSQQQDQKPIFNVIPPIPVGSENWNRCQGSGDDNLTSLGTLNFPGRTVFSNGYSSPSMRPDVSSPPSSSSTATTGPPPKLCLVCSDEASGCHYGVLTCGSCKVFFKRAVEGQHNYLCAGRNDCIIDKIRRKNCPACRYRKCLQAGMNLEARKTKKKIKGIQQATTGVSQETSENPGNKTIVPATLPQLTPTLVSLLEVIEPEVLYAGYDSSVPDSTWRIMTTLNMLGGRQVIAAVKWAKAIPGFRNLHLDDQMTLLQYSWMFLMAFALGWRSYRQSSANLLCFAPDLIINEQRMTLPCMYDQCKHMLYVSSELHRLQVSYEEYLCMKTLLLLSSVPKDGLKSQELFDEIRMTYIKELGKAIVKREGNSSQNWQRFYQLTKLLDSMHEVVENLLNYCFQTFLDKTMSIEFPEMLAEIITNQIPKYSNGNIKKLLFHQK", "test": "Mammalian cell based peptide/GR interaction assay in Huh-7 cells, 96-/384-well luciferase", "text": "as §1\nWe have isolated numerous peptides using phage display to the GR ligand binding domain and have formatted cell based assays in mammalian cells for screening large compound sets. We have formatted the assay as stated above for 96-well plates and for 384-well plates. To format the assay to 384-well plates the number of cells per well were scaled down to 5,000 Huh-7 cells per well. Similar ratios of DNA constructs and lipection reagents were used in both assays for transfections prior to seeding the cells into the assay plates. We have also carried out a screen of a 60,000 compound set with one of the phage display isolated peptides in this mammalian cell based format. This peptide interacts with the glucocorticoid receptor in the presence of both agonists (e.g. fluticasone propionate and dexamethasone) and antagonists (RU486). For the compound screen cells were transfected in suspension with DNA constructs as described above prior to seeding 5,000 cells per well. […]"}, "ERβ": {"target": "ERβ (Homo sapiens, UniProt Q92731)", "test": "Phage ELISA fingerprint: peptide binding to immobilized ER β with modulator present (Table 14B)", "details": "nafoxidine (10 μM)"}, "ER α": {"target": "T3, ER α (Homo sapiens, UniProt P03372)", "T3 sequence (P03372 1-595)": "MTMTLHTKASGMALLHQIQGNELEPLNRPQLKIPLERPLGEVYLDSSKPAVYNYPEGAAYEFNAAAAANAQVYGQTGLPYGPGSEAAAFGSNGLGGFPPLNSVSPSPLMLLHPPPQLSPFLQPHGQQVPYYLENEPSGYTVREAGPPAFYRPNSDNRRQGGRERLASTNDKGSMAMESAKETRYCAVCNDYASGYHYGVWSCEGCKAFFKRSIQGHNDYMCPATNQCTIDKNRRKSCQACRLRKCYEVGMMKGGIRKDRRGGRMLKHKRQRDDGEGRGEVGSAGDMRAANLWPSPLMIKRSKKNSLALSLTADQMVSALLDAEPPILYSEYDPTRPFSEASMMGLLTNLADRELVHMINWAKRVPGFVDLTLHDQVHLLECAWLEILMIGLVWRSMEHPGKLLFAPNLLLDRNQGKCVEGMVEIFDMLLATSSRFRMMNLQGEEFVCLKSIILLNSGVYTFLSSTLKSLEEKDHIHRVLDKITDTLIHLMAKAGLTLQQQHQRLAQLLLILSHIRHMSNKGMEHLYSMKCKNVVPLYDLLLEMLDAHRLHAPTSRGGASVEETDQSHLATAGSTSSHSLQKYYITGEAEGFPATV", "test": "Phage ELISA fingerprint: peptide binding to immobilized ER α with modulator present (Table 14A)", "details": "ICI 182,780 (1 μM)"}, "[2]": {"target": "T4, ER β (immobilized, in vitro phage assays), Q92731", "T4 chain": "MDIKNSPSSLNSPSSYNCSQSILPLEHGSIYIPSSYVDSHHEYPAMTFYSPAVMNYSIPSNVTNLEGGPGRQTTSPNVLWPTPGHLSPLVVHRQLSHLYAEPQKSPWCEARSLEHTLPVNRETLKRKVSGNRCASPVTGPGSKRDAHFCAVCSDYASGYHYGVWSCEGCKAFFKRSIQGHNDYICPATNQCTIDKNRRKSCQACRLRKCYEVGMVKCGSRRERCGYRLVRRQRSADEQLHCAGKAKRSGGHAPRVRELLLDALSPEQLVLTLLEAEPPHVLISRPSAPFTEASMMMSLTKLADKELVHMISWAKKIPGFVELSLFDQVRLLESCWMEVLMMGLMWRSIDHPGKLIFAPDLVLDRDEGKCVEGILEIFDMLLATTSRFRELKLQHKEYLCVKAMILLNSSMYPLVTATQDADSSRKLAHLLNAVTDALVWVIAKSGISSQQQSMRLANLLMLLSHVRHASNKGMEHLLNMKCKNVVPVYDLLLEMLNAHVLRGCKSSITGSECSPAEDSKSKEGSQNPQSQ", "test": "phage ELISA; ICI 182,780 1 µM"}, "[3]": {"target": "T4, ER β (immobilized, in vitro phage …)", "test": "phage ELISA; 4-OH tamoxifen 1 µM"}, "[4]": {"target": "T4, ER β (immobilized, in vitro phage …)", "test": "phage ELISA; raloxifene 1 µM"}, "[5]": {"target": "T4, ER β (immobilized, in vitro phage …)", "test": "phage ELISA; clomiphene 10 µM"}}}
{"molecule": "EFVARYGQLLGWRHPCS [GRMPA]", "values": [{"measurement": "Interaction with GR in the presence of partial agonists", "setting": "[1]; MPA, cortivazol, and deoxycorticosterone", "result": "interacted"}, {"measurement": "Interaction with GR in the presence of antagonists", "setting": "[1]; RU486", "result": "interacted"}, {"measurement": "Interaction with GR in the presence of full agonists", "setting": "[1]; fluticasone propionate and dexamethasone", "result": "not"}, {"measurement": "Interaction with GR in the presence of all ligands (agonists, partial agonists, and antagonists)", "setting": "glucocorticoid receptor", "result": "interacted"}]}
{"molecule": "SRLPPSVFSMCGSEVCLSR [9Tβ]", "values": [{"measurement": "Class Specific Fingerprint on ERβ: peptide binding, Nafoxidine present", "setting": "ERβ", "result": 5}, {"measurement": "Class Specific Fingerprint on ERα: peptide binding, ICI 182,780 present", "setting": "ER α", "result": 0}]}
{"molecule": "SSNHQSSRLIELLSR (modifications not checked)", "note": "[Phage # 4 (Table 2)]", "values": [{"measurement": "phage ELISA grade", "setting": "[2]", "result": 0}, {"measurement": "phage ELISA grade", "setting": "[3]", "result": 0}, {"measurement": "phage ELISA grade", "setting": "[4]", "result": 0}, {"measurement": "phage ELISA grade", "setting": "[5]", "result": 0}]}
